The source of these data is patent publication US20040258656, “High affinity TGFbeta nucleic acid ligands and inhibitors” (published 2004).

The labels stand for the following.
T1: TGFβ2 (transforming growth factor beta 2) (Homo sapiens, UniProt P61812 SEQ:1-112)
T1 sequence: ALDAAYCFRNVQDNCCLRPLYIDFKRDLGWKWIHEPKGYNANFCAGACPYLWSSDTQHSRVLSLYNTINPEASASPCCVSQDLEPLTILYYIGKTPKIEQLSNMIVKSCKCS

B1: 21a-21(ML-102) (ssRNA)
RNA: GGAGGUUAUUAGAGUCUAUAGCCUCC
modifications: 2'-F C and U
B2: 21a-21(ML-97) (ssRNA)
RNA: GGAGGUUAUUACAGAGUCUGUAUAGC
modifications: 2'-F C and U
B3: NX22285 (ssRNA)
RNA: GGAGGUUAUUACAGAGUCUGUAUAGCUGUACUCCCCA
modifications: 2'-F C and U
B4: 21a-21(ML-96) (ssRNA)
RNA: GGAGGUUAUUACAGAGUCUGUAUAGCUGUA
modifications: 2'-F C and U
B5: 21a-21(ML-138) (ssRNA)
RNA: GGGGUUAUUAAGAGUCUGUAUAGCUUACCC
modifications: 2'-F C and U
B6: 21a-21(ML-136) (ssRNA)
RNA: GGGGUUAUUCAGAGUCUGUAUAGCUGACCC
modifications: 2'-F C and U
B7: 21a-21(ML-95) (ssRNA)
RNA: GGAGGUUAUUACAGAGUCUGUAUAGCUGUACUCC
modifications: 2'-F C and U
B8: 21a-21(ML-94) (ssRNA)
RNA: GGAGGUUAUUACAGAGUCUGUAUAGCUGUACUCCCC
modifications: 2'-F C and U
B9: 21a-21(ML-101) (ssRNA)
RNA: GGAGGUUAUUAGAGUCUAUAGCUGUACUCC
modifications: 2'-F C and U
B10: 21a-21(ML-114) (ssRNA)
RNA: GGAGGUUAUUACAGAGUCUGUAUAGCGUACUCC
modifications: 2'-F C and U
B11: 21a-21(ML-115) (ssRNA)
RNA: GGAGGUUAUUACAGAGUCUGUAUAGCUGUCUCC
modifications: 2'-F C and U
B12: 21a-21(ML-122) (ssRNA)
RNA: GGAGGUUAUUACAAGUUGUAUAGCUGUACUCC
modifications: 2'-F C and U
B13: 21a-21(ML-130) (ssRNA)
RNA: GGGGUUAUUACAGAGUCUGUAUAGCUGUACCC
modifications: 2'-F C and U
B14: NX22301 (ssRNA)
RNA: GAGGUUAUUACAGAGUCUGUAUAGCUGUACUCC
modifications: 2'-F C and U; 3'-3' dT cap
B15: 21a-21(ML-120) (ssRNA)
RNA: GGAGGUUAUUACAGAUCUGUAUAGCUGUACUCC
modifications: 2'-F C and U
B16: 21a-21(ML-128) (ssRNA)
RNA: GGAGGUUAUUACAGAGUUGUAUAGCUGUACUCC
modifications: 2'-F C and U
B17: 21a-21(ML-132) (ssRNA)
RNA: GGAGGUUAUUACGAGUCUGUAUAGCGUACUCC
modifications: 2'-F C and U
B18: 21a-21(ML-116) (ssRNA)
RNA: GGAGGUUAUUACAGAGUCUGUAUAGCUACUCC
modifications: 2'-F C and U
B19: NX22303 (ssRNA)
RNA: GGUUAUUACAGAGUCUGUAUAGCUGUACUCC
modifications: 2'-F C and U; 3'-3' dT cap
B20: 21a-21(ML-118) (ssRNA)
RNA: GGAGGUUAUACAGAGUCUGUAUAGCUGUACUCC
modifications: 2'-F C and U
B21: 21a-21(ML-134) (ssRNA)
RNA: GGAGAUAUUACAGAGUCUGUAUAGCUGUACUCC
modifications: 2'-F C and U
B22: 21a-21(ML-105) (ssRNA)
RNA: GGAGGUUAUUACAGAGUCUGUAUAGCUGUAC
modifications: 2'-F C and U
B23: NX22302 (ssRNA)
RNA: AGGUUAUUACAGAGUCUGUAUAGCUGUACUCC
modifications: 2'-F C and U; 3'-3' dT cap
B24: biased clone 4 (ssRNA)
RNA: GGGAGGACGAUGCGGGGAGGGUAUUACAGAGUAUGUAUAGCUGUACUCCCAGACGACUCGCCCGA
modifications: 2'-F C and U
B25: biased clone 19 (ssRNA)
RNA: GGGAGGACGAUGCGGGCAGGUUAUUACAGAGUCUGUAUAGCUGUACUGCCAGACGACUCGCCCGA
modifications: 2'-F C and U
B26: biased clone 26 (ssRNA)
RNA: GGGAGGACGAUGCGGGGUGGUUAUUACACAGUAUGUAUAGGUGUACCCCCAGACGACUCGCCCGA
modifications: 2'-F C and U
B27: biased clone 7 (ssRNA)
RNA: GGGAGGACGAUGCGGGAGGGUUAUUAUAGAGUCUGCAUAGCUAUACCCCCAGACGACUCGCCCGA
modifications: 2'-F C and U
B28: biased clone 11 (ssRNA)
RNA: GGGAGGACGAUGCGGGCGGAUUAUCACAGAGUAUGUAUAGCUGUGCCGCCAGACGACUCGCCCGA
modifications: 2'-F C and U
B29: biased clone 14 (ssRNA)
RNA: GGGAGGACGAUGCGGCGGGAUUAUUACUGAGUCUGUAUAGCAGUACCCCCAGACGACUCGCCCGA
modifications: 2'-F C and U
B30: biased clone 22 (ssRNA)
RNA: GGGAGGACGAUGCGGGUGGAUUAUUACAGAGUCUGUAUAGCUGUACCCCCAGACGACUCGCCCGA
modifications: 2'-F C and U
B31: biased clone 18 (ssRNA)
RNA: GGGAGGACGAUGCGGGUGGAUUAUUACAGCGUCUGUAUAUCUGUACCCCCAGACGACUCGCCCGA
modifications: 2'-F C and U
B32: biased clone 13 (ssRNA)
RNA: GGGAGGACGAUGCGGUGUGAAUAUUAGAGAGUCUGUAUAGCUCUACCCCCAGACGACUCGCCCGA
modifications: 2'-F C and U
B33: biased clone 21 (ssRNA)
RNA: GGGAGGACGAUGCGGAGGGAUUAUUACAGAGUCUGUAUAGCUGUACCCCCAGACGACUCGCCCGA
modifications: 2'-F C and U
B34: biased clone 9 (ssRNA)
RNA: GGGAGGACGAUGCGGUGAGAGUAUUACGGAGUAUGUAUAGCCGUACCCCCAGACGACUCGCCCGA
modifications: 2'-F C and U
B35: biased clone 28 (ssRNA)
RNA: GGGAGGACGAUGCGGAGGGAAUAUUACAGAGUAUGUAUAGCUGUACCCCCAGACGACUCGCCCGA
modifications: 2'-F C and U
B36: biased clone 29 (ssRNA)
RNA: GGGAGGACGAUGCGGGGAGUUUAUUACAGCGUCUGUAUAUCUGUAGCCCCAGACGACUCGCCCGA
modifications: 2'-F C and U
B37: biased clone 10 (ssRNA)
RNA: GGGAGGACGAUGCGGGGGCAUUAUUUCAGAGUCUGUAUAGCUGUAGCCCCAGACGACUCGCCCGA
modifications: 2'-F C and U
B38: biased clone 30 (ssRNA)
RNA: GGGAGGACGAUGCGGUGAGGUUAUUACAGAGUCUGUAUAGCUGUACUCCCAGACGACUCGCCCGA
modifications: 2'-F C and U
B39: biased clone 34 (ssRNA)
RNA: GGGAGGACGAUGCGGGGUGGUUAUUAGAGAGUCUGUAUAGCUCUACGCCCAGACGACUCGCCCGA
modifications: 2'-F C and U
B40: biased clone 35 (ssRNA)
RNA: GGGAGGACGAUGCGGGGGGAGUAUUAAAGAGUCUGUAUAGCUUUACCCCCAGACGACUCGCCCGA
modifications: 2'-F C and U
B41: biased clone 25 (ssRNA)
RNA: GGGAGGACGAUGCGGGGGCGUUAUUACAGAGUCUGUAUAGCUGUAGCCCCAGACGACUCGCCCGA
modifications: 2'-F C and U
B42: biased clone 36 (ssRNA)
RNA: GGGAGGACGAUGCGGGGAGGAUAUUAUAGAGUCUGUAUAGCUAUACCCCCAGACGACUCGCCCGA
modifications: 2'-F C and U
B43: biased clone 15 (ssRNA)
RNA: GGGAGGACGAUGCGGGUGGAAUAUUACGGAGUCUGUAUAGCCGUACUCCCAGACGACUCGCCCGA
modifications: 2'-F C and U
B44: biased clone 20 (ssRNA)
RNA: GGGAGGACGAUGCGGGGUAGAUAUCACUGAGUCUGUAUAGCAGUGUCCCCAGACGACUCGCCCGA
modifications: 2'-F C and U
B45: biased clone 2 (ssRNA)
RNA: GGGAGGACGAUGCGGAGGCGUUAUUAGAGAGUCUGUAUAGCUCUAGCCCCAGACGACUCGCCGA
modifications: 2'-F C and U
B46: biased clone 17 (ssRNA)
RNA: GGGAGGACGAUGCGGGGGGACUAUUAGUGAGUCUGUAUAGCACUACCCCCAGACGACUCGCCCGA
modifications: 2'-F C and U
B47: 8.2 (ssRNA)
RNA: GGGAGGACGAUGCGGAAGUAACGUUUAAGUAAAAUUCGUUCUCUCGGUAUUUGGCCAGACGACUCGCCCGA
modifications: 2'-F C and U; 2'-OH A and G

One series has as its target T1, TGFβ2 (transforming growth factor beta …). Kind of series: filter. As to conditions: chain copies: 2 (inferred, homodimer).
On to B1, for which the binding signal was 1000 x Kd of NX22284. On to B2, for which the binding signal is 1000 x Kd of NX22284. For B3, the binding signal was 2 x Kd of NX22284. Still for that read-out and setting: with B4 the figure was 1000 x Kd of NX22284; with B5, 10000 x Kd of NX22284.

With B6, the binding signal was 10000 x Kd of NX22284. The same measure, in the same setting: with B7 the figure was 1 x Kd of NX22284. On to B8, for which the binding signal is 0.5 x Kd of NX22284. With B9, the binding signal is 1000 x Kd of NX22284. For B10, the binding signal is 1000 x Kd of NX22284. B11: the binding signal was 1000 x Kd of NX22284.

As to B12, the binding signal was 1000 x Kd of NX22284.

As for B13, the binding signal was 2 x Kd of NX22284. B14: the binding signal was 1 x Kd of NX22284. On the same count and under the same terms, for B15 the value was 1000 x Kd of NX22284; for B16, 1000 x Kd of NX22284; for B17, 1000 x Kd of NX22284.

For the molecule B18, the binding signal is 1000 x Kd of NX22284. Take B19: the binding signal is > 100 x Kd of NX22284. Same read-out and setting: with B20 the figure was 1000 x Kd of NX22284; with B21, 10 x Kd of NX22284; with B22, 1000 x Kd of NX22284. For the molecule B23, the binding signal is 100 x Kd of NX22284.

The target is the same in another series. Put plainly: filter. The settings on record: chain copies: 2 (inferred, homodimer). The source holds these as a separate data set.
With B24, the binding signal was 1.4 x Kd of 21a-21.

Turning to B25, the binding signal is 1 x Kd of 21a-21. Take B26: the binding signal was 3.1 x Kd of 21a-21. On to B27, for which the binding signal is 0.3 x Kd of 21a-21. In the case of B28, the binding signal was 0.4 x Kd of 21a-21. Regarding B29, the binding signal is 0.4 x Kd of 21a-21.

In the case of B30, the binding signal is 1.1 x Kd of 21a-21. As to B31, the binding signal is 1 x Kd of 21a-21. Turning to B32, the binding signal was 0.2 x Kd of 21a-21. B33: the binding signal was 0.7 x Kd of 21a-21. As to B34, the binding signal was 0.3 x Kd of 21a-21. As for B35, the binding signal was 1 x Kd of 21a-21.

As to B36, the binding signal was 1 x Kd of 21a-21. Take B37: the binding signal is 0.3 x Kd of 21a-21. Regarding B38, the binding signal was 2.4 x Kd of 21a-21.

Turning to B39, the binding signal was 1.7 x Kd of 21a-21. With B40, the binding signal is 0.8 x Kd of 21a-21. Regarding B41, the binding signal was 1 x Kd of 21a-21. On the same count and under the same terms, for B42 the value was 1.9 x Kd of 21a-21; for B43, 0.4 x Kd of 21a-21; for B44, 5.7 x Kd of 21a-21. Take B45: the binding signal was 0.6 x Kd of 21a-21. As to B46, the binding signal is 0.8 x Kd of 21a-21.

The next series shares this target. Kind of series: filter. The settings on record: chain copies: 2 (homodimer, stated).
For B47, the binding result is reported as “binds”.
